Laboratory results published in patent US20230192896A1 (published 2023).
Positions count from the first letter of the chain named.

B1: BIIB-9-606 (antibody, V domains shown)
VH: QVQLVQSGAEVKKPGASVKVSCKASGYTFTSYYMHWVRQAPGQGLEWMGIINPSGGSTSYAQKFQGRVTMTRDTSTSTVYMELSSLRSEDTAVYYCARTKWSSSPYGMDVWGQGTTVTVSS
VL: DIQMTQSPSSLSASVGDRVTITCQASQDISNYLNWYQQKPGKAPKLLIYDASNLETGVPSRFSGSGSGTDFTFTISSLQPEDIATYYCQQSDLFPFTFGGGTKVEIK
B2: BIIB-9-582 (antibody, V domains shown)
VH: B1 VH with H35V, T99A, K100P, W101T, S102Y, S103F, S104Y, P105S
VL: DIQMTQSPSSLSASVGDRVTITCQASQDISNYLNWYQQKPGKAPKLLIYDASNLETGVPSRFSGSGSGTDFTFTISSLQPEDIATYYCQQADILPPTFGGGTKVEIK
B3: BIIB-9-585 (antibody, V domains shown)
VH: QLQLQESGPGLVKPSETLSLTCTVSGGSISSSDYYWGWIRQPPGKGLEWIGSIYYSGSTYYNPSLKSRVTISVDTSKNQFSLKLSSVTAADTAVYYCAREVGTYYYGLDFWFDPWGQGTLVTVSS
VL: DIQMTQSPSSVSASVGDRVTITCRASQGISSWLAWYQQKPGKAPKLLIYAASSLQSGVPSRFSGSGSGTDFTLTISSLQPEDFATYYCQQANSYPITFGGGTKVEIK
B4: BIIB-9-414 (antibody, V domains shown)
VH: B1 VH with T99D, K100P, W101Y, S103Y, S104G, P105M, G107Y, M108F, V110Y, T116L
VL: B3 VL with A91G, N92D, S93V, Y94F, I96F
B5: BIIB-9-1272 (antibody, V domains shown)
VH: QVQLVQSGAEVKKPGASVKVSCKASGYTFTSYYMHWVRQAPGQGLEWMGIINPSGGSTSYAQKFQGRVTMTRDTSTSTVYMELSSLRSEDTAVYYCARDTGGYAFDIWGQGTLVTVSS
VL: B3 VL with N92S, Y94F, I96F
B6: BIIB-9-564 (antibody, V domains shown)
VH: QVQLQESGPGLVKPSETLSLTCAVSGYSISSGYYWAWIRQPPGKGLEWIGSIYHSGSTYYNPSLKSRVTISVDTSKNQFSLKLSSVTAADTAVYYCARDPGYSWEYFDYWGQGTLVTVSS
VL: B3 VL with V11L, G28S, W32Y, A34N, A91S, N92V, S93A, Y94V, I96P
B7: BIIB-9-1269 (antibody, V domains shown)
VH: QVQLVQSGAEVKKPGASVKVSCKASGYTFTSYYMHWVRQAPGQGLEWMGIINPSGGSTSYAQKFQGRVTMTRDTSTSTVYMELSSLRSEDTAVYYCARDRGQYYHFDLWGRGTLVTVSS
VL: B3 VL with T20A, N92S, Y94F, I96F
B8: BIIB-9-1274 (antibody, V domains shown)
VH: B5 VH
VL: B3 VL with Y94F, I96F
B9: BIIB-9-1283 (antibody, V domains shown)
VH: QVQLVQSGAEVKKPGASVKVSCKASGYTFTSYYMVWVRQAPGQGLEWMGIINPSGGSTSYAQKFQGRVTMTRDTSTSTVYMELSSLRSEDTAVYYCARVPTYRYSYLAFDIWGQGTMVTVSS
VL: B3 VL with N92S, Y94F, I96P
B10: BIIB-9-415 (antibody, V domains shown)
VH: QVQLVQSGAEVKKPGASVKVSCKASGYTFTSYYMHWVRQAPGQGLEWMGIINPSGGSTSYAQKFQGRVTMTRDTSTSTVYMELSSLRSEDTAVYYCARDGLSSGYYWDNWGQGTLVTVSS
VL: B3 VL with S30D, A91G, N92D, S93A, Y94F, I96F
B11: BIIB-9-470 (antibody, V domains shown)
VH: EVQLVESGGGLVQPGGSLRLSCAASGFTFSSYWMSWVRQAPGKGLEWVANIKQDGSEKYYVDSVKGRFTISRDNAKNSLYLQMNSLRAEDTAVYYCARDAGIAWALDYWGQGTLVTVS
VL: DIQMTQSPSTLSASVGDRVTITCRASQSISSWLAWYQQKPGKAPKLLIYKASSLESGVPSRFSGSGSGTEFTLTISSLQPDDFATYYCQHPHSWTFGGGTKVEIK
B12: BIIB-9-425 (antibody, V domains shown)
VH: QVQLVQSGAEVKKPGASVKVSCKASGYTFTSYYMHWVRQAPGQGLEWMGIINPSGGSTSYAQKFQGRVTMTRDTSTSTVYMELSSLRSEDTAVYYCAREPTWDVAYDYWGQGTLVTVS
VL: EIVLTQSPGTLSLSPGERATLSCRASQSVSSDYLAWYQQKPGQAPRLLIYGASSRATGIPDRFSGSGSGTDFTLTISRLEPEDFAVYYCQQYDSHPYTFGGGTKVEIK
B13: BIIB-9-615 (antibody, V domains shown)
VH: QVQLVQSGAEVKKPGASVKVSCKASGYTFTSYYMHWVRQAPGQGLEWMGIINPSGGSTSYAQKFQGRVTMTRDTSTSTVYMELSSLRSEDTAVYYCARDSPSSSSYWSLDLWGRGTLVTVSS
VL: EIVLTQSPATLSLSPGERATLSCRASQSVSSYLAWYQQKPGQAPRLLIYDASNRATGIPARFSGSGSGTDFTLTISSLEPEDFAVYYCQQSCHWPWTFGGGTKVEIK
B14: BIIB-9-433 (antibody, V domains shown)
VH: QLQLQESGPGLVKPSETLSLTCTVSGGSISSSRYYWGWIRQPPGKGLEWIGSIYYSGSTYYNPSLKSRVTISVDTSKNQFSLKLSSVTAADTAVYYCARDAGYSAELFDYWGQGTLVTVSS
VL: B13 VL with C92S, H93A, W94Y, W96P
B15: BIIB-9-1270 (antibody, V domains shown)
VH: B5 VH
VL: B13 VL with C92A, H93D, W94F, W96F
B16: BIIB-9-484 (antibody, V domains shown)
VH: EVQLVESGGGLVKPGGSLRLSCAASGFTFSSYSMNWVRQAPGKGLEWVSSISSSSSYIYYADSVKGRFTISRDNAKNSLYLQMNSLRAEDTAVYYCARDVGGYAGYYGMDVWGQGTTVTVSS
VL: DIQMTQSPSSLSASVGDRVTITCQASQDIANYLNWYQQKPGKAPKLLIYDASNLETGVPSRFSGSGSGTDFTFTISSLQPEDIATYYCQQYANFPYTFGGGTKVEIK
B17: BIIB-9-629 (antibody, V domains shown)
VH: QVQLVQSGAEVKKPGASVKVSCKASGYTFTSYYMHWVRQAPGQGLEWMGVINPSGGSTSYAQKFQGRVTMTRDTSTSTVYMELSSLRSEDTAVYYCARDPSQDYATGTGWFDPWGQGTLVTVSS
VL: DIQLTQSPSSLSASVGDRVTITCQASQDISNYLNWYQQKPGKAPKLLIYDASNLETGVPSRFSGSGSGTDFTFTISSLQPEDIATYYCQQLDSLPPTFGGGTKVEIK
B18: BIIB-9-475 (antibody, V domains shown)
VH: QVQLQESGPGLVKPSETLSLTCTVSGGSISSYYWSWIRQPPGKGLEWIGSIYYSGSTNYNPSLKSRVTISVDTSKNQFSLKLSSVTAADTAVYYCARDVGGYDYGVGAFDIWGQGTMVTVSS
VL: B17 VL with L4M, S30T, L91S, D92S, S93N, L94F, P96L
B19: BIIB-9-397 (antibody, V domains shown)
VH: QVQLQESGPGLVKPSETLSLTCAVSGYSISSGYYWAWIRQPPGKGLEWIGSIYHSGSTYYNPSLKSRVTISVDTSKNQFSLKLSSVTAADTAVYYCARDVWYVGGFDPWGQGTLVTVSS
VL: B17 VL with L4M, L91S, S93D, L94H
B20: BIIB-9-568 (antibody, V domains shown)
VH: B14 VH with R33S, A101L, S104A, E106T, L107Y, Y110L, Q113R
VL: DIQMTQSPSSLSASVGDRVTITCQASQDISNYLNWYQQKPGKAPKLLIYDASNLETGVPSRFSGSGSGTDFTFTISSLQPEDIATYYCQQYDDYLTFGGGTKVEIK
B21: BIIB-9-465 (antibody, V domains shown)
VH: B7 VH with H35V, D99S, R100P, G101T, Q102D, Y103G, H105Y
VL: DIQMTQSPSTLSASVGDRVTITCRASQSINSWLAWYQQKPGKAPKLLISDASSLESGVPSRFSGSGSGTEFTLTISSLQPDDFATYYCQQYEIFPFTFGGGTKVEIK
B22: BIIB-9-460 (antibody, V domains shown)
VH: QVQLVQSGAEVKKPGASVKVSCKASGYTFTSYYMHWVRQAPGQGLEWMGIINPSGGSTSYAQKFQGRVTMTRDTSTSTVYMELSSLRSEDTAVYYCARDISTDGESSLYYYMDVWGKGTTVTVSS
VL: EIVMTQSPATLSVSPGERATLSCRASQSVSSNLAWYQQKPGQAPRLLIYGASTRATGIPARFSGSGSGTEFTLTISSLQSEDFAVYYCQQHDNFPFTFGGGTKVEIK
B23: BIIB-9-1284 (antibody, V domains shown)
VH: B9 VH
VL: B22 VL with M4L, S30G, D92N, N93H, F94L, F96I
B24: BIIB-9-590 (antibody, V domains shown)
VH: B10 VH with G100Q, L101E, S102W, S103A, G104Y, Y106G, W107M, N109V, L115T
VL: B13 VL with S91V, C92D, H93N, W94F, W96L
B25: BIIB-9-1271 (antibody, V domains shown)
VH: B5 VH
VL: B22 VL with E70D, S80P, V85T, H91G, D92F, N93S

Target: free FIXa (activated Factor IX) (UniProt P00740 47-191; P00740 227-461)
Assay: BLI

With B1 as the binder, how does the Kd read?
Its Kd is 0.016 µM.

How did the Kd turn out when B2 was run?
The Kd was 0.0142 µM.

With B3 as the binder, how does the Kd read?
The Kd was 0.0124 µM.

Which Kd does the source give for B4 here?
The Kd was 0.0166 µM.

With B5 as the binder, how does the Kd read?
The Kd was 0.0456 µM.

How did the Kd turn out when B6 was run?
The Kd was 0.0174 µM.

Which Kd does the source give for B7 here?
The Kd was 0.0451 µM.

How did the Kd turn out when B8 was run?
Its Kd is 0.0284 µM.

With B9 as the binder, how does the Kd read?
The Kd was 0.037 µM.

Which Kd does the source give for B10 here?
Its Kd is 0.0144 µM.

With B11 as the binder, how does the Kd read?
The Kd was 0.0196 µM.

With B12 as the binder, how does the Kd read?
The Kd was 0.00546 µM.

Which Kd does the source give for B13 here?
The Kd was 0.0232 µM.

Which Kd does the source give for B14 here?
The Kd was 0.0164 µM.

For B15, which Kd is on record?
The Kd was 0.0242 µM.

How did the Kd turn out when B16 was run?
Its Kd is 0.0377 µM.

With B17 as the binder, how does the Kd read?
The Kd was 0.0256 µM.

B18 was tested. Which Kd did it give?
Its Kd is 0.00593 µM.

B19 was tested. Which Kd did it give?
The Kd was 0.00489 µM.

How did the Kd turn out when B20 was run?
The Kd was 0.0055 µM.

With B21 as the binder, how does the Kd read?
Its Kd is 0.0198 µM.

Which Kd does the source give for B22 here?
The Kd was 0.0201 µM.

With B23 as the binder, how does the Kd read?
Its Kd is 0.0412 µM.

For B24, which Kd is on record?
Its Kd is 0.0113 µM.

Which Kd does the source give for B25 here?
Its Kd is 0.0445 µM.
